Assay results published in the supplement of paper PMC10724198.
± gives the standard deviation of the averaged measurements.

What was measured:
Saccharomyces cerevisiae [1] = test: protein stability index of tFT-peptide fusion (C-terminal peptide) (PSI (0-1 scale)); higher = more stable (slower turnover)
Description: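 MPS profiling in S. cerevisiae of the tFT-X12 degron library: putative degron peptides plus stable controls, 12 aa, fused to the C-terminus of a sfGFP-mCherry timer. Cells are FACS-sorted into 8 mCherry/sfGFP bins and deep-sequenced. PSI runs from 0 (unstable) to 1 (stable). Backgrounds are wild type, das1Δ and doa10Δ at 30 °C, and wild type, das1Δ, cdc34-1 and cdc53-1 at 37 °C; 2-3 technical replicates each.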

Saccharomyces cerevisiae [2] = test: as above; conditions: genetic background: wild type; temperature: 30 C
[3] = genetic background: cdc34-1, temperature: 37 C
[4] = genetic background: cdc53-1, temperature: 37 C
[5] = genetic background: das1 deletion, temperature: 30 C
[6] = genetic background: das1 deletion, temperature: 37 C
[7] = genetic background: doa10 deletion, temperature: 30 C
[8] = genetic background: wild type, temperature: 30 C
[9] = genetic background: wild type, temperature: 37 C
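Further: PSI is a weighted mean of sequencing reads over stability bins, variants kept only with over 10 reads, mCherry proximal and sfGFP distal, peptide attached via GGGS linker.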

Row | Sequence | protein stability index (Saccharomyces cerevisiae [1]; [3]) | protein stability index (Saccharomyces cerevisiae [1]; [4]) | protein stability index (Saccharomyces cerevisiae [1]; [5]) | protein stability index (Saccharomyces cerevisiae [1]; [6]) | protein stability index (Saccharomyces cerevisiae [1]; [7]) | protein stability index (Saccharomyces cerevisiae [1]; [8]) | protein stability index (Saccharomyces cerevisiae [1]; [9]) | protein stability index (Saccharomyces cerevisiae [2])
1 | ACFLFPSHLLIS | 0.584 ± 0.021 | 0.689 ± 0.0086 | 0.541 ± 0.02 | 0.699 ± 0.021 | 0.165 ± 0.023 | 0.181 ± 0.011 | 0.3022 ± 0.0017 | 0.305 ± 0.0099
2 | AFCGRRGHQFYN | 0.61 ± 0.0073 | 0.743 ± 0.016 | 0.648 ± 0.018 | 0.746 ± 0.037 | 0.144 ± 0.0093 | 0.164 ± 0.014 | 0.42 ± 0.027 | 0.263 ± 0.061
3 | AFRFFWFFFFTS | 0.536 ± 0.066 | 0.619 ± 0.042 | 0.466 ± 0.024 | 0.603 ± 0.035 | 0.446 ± 0.0062 | 0.426 ± 0.017 | 0.557 ± 0.018 | 0.445 ± 0.03
4 | AFSISPFRLRMV | 0.642 ± 0.026 | 0.753 ± 0.025 | 0.649 ± 0.013 | 0.746 ± 0.03 | 0.249 ± 0.0032 | 0.293 ± 0.022 | 0.541 ± 0.0024 | 0.418 ± 0.017
5 | AFWLFSGIARLA | 0.568 ± 0.011 | 0.66 ± 0.023 | 0.472 ± 0.014 | 0.642 ± 0.024 | 0.221 ± 0.014 | 0.277 ± 0.011 | 0.5014 ± 0.0035 | 0.407 ± 0.041
6 | AGESLRAIAVLY | 0.647 ± 0.06 | 0.715 ± 0.025 | 0.588 ± 0.0077 | 0.6605 ± 0.004 | 0.258 ± 0.016 | 0.292 ± 0.018 | 0.47738 ± 0.00044 | 0.42 ± 0.018
7 | AGLTLLWPLCLL | 0.28 ± 0.0058 | 0.261 ± 0.0053 | 0.277 ± 0.022 | 0.394 ± 0.013 | 0.591 ± 0.01 | 0.265 ± 0.034 | 0.353 ± 0.013 | 0.3669 ± 0.0023
8 | AGTLLLGYGILA | 0.454 ± 0.019 | 0.464 ± 0.038 | 0.342 ± 0.023 | 0.5107 ± 0.00054 | 0.309 ± 0.017 | 0.349 ± 0.023 | 0.486 ± 0.0055 | 0.43845 ± 0.00034
9 | AGVRCPLFWLVC | 0.461 ± 0.049 | 0.622 ± 0.032 | 0.498 ± 0.033 | 0.632 ± 0.013 | 0.131 ± 0.012 | 0.138 ± 0.0075 | 0.148 ± 0.01 | 0.156 ± 0.0027
10 | AHPTLILTNKIA | 0.578 ± 0.13 | 0.705 ± 0.063 | 0.643 ± 0.025 | 0.712 ± 0.044 | 0.0637 ± 0.025 | 0.104 ± 0.044 | 0.121 ± 0.023 | 0.237 ± 0.0044
11 | ALLIYFLCRCIP | 0.4326 ± 0.00094 | 0.476 ± 0.011 | 0.343 ± 0.033 | 0.522 ± 0.016 | 0.301 ± 0.015 | 0.33 ± 0.035 | 0.483 ± 0.032 | 0.44 ± 0.034
12 | APLFPPPPARSL | 0.652 ± 0.034 | 0.7023 ± 0.0017 | 0.661 ± 0.014 | 0.704 ± 0.011 | 0.692 ± 0.017 | 0.677 ± 0.03 | 0.688 ± 0.041 | –
13 | ARRFLVRRFILF | 0.545 ± 0.019 | 0.65822 ± 0.00018 | 0.586 ± 0.0066 | 0.683 ± 0.026 | 0.187 ± 0.018 | 0.189 ± 0.021 | 0.326 ± 0.033 | 0.282 ± 0.0087
14 | ASHLGLGCLVVC | 0.601 ± 0.089 | 0.571 ± 0.045 | 0.426 ± 0.018 | 0.604 ± 0.015 | 0.389 ± 0.028 | 0.408 ± 0.02 | 0.579 ± 0.021 | 0.491 ± 0.0059
15 | AVRLPFPLLVHL | 0.205 ± 0.012 | 0.195 ± 0.0033 | 0.283 ± 0.031 | 0.386 ± 0.0046 | 0.427 ± 0.016 | 0.276 ± 0.053 | 0.337 ± 0.029 | 0.473 ± 0.028
16 | AYSVIPSLALLP | 0.681 ± 0.062 | 0.741 ± 0.008 | 0.631 ± 0.024 | 0.731 ± 0.0022 | 0.646 ± 0.018 | 0.632 ± 0.01 | 0.706 ± 0.0094 | –
17 | FFCRWGSTVTLL | 0.604 ± 0.034 | 0.696 ± 0.013 | 0.557 ± 0.014 | 0.647 ± 0.037 | 0.4076 ± 0.001 | 0.427 ± 0.01 | 0.559 ± 0.011 | –
18 | GAVRGWGWVSFV | 0.622 ± 0.0072 | 0.789 ± 0.011 | 0.595 ± 0.025 | 0.71792 ± 4.5e-05 | 0.357 ± 0.054 | 0.317 ± 0.04 | 0.436 ± 0.0078 | –
19 | GFYQSGGLVVVV | 0.6489 ± 0.0026 | 0.674 ± 0.014 | 0.501 ± 0.03 | 0.663 ± 0.0058 | 0.482 ± 0.017 | 0.515 ± 0.013 | 0.64 ± 0.028 | –
20 | GGGGGGGDVLVW | 0.265 ± 0.04 | 0.363 ± 0.036 | 0.265 ± 0.037 | 0.426 ± 0.0099 | 0.202 ± 0.022 | 0.244 ± 0.034 | 0.392 ± 0.0048 | –
